Data from publication PMC6566259, “Engineering of Nanobodies Recognizing the Human Chemokine Receptor CCR7” (International Journal of Molecular Sciences, 2019).

Experiments:
Conditions in all cases: partners not purified
CCR7-SmBiT = target: T1, CCR7-SmBiT (Homo sapiens, UniProt P32248); assay: split reporter (BiFC, NanoBiT); split-luciferase complementation; HEK293 cells co-expressing GPCR-SmBiT and Nb-LgBiT (plasmid ratio 1:1), coelenterazine H 5 µM, luminescence before and after 10 µM isoproterenol, 1.5 µg/mL CCL19 or PBS
T1 construct: Chemokine receptor CCR7, human; amplified from pcDNA3-CCR7-HA and ligated to SmBiT amplified from pAAVS1P-iCLHN; A Gly/Ser linker between CCR7 and SmBiT is surmised from the primer; also called pcDNA3-CCR7-SmBiT; pBiT2.1-C-CCR7-SmBiT; source: HEK293, transiently transfected, in cells; not shown: SmBiT (Small BiT of NanoLuc), C-terminal, kept
T1 sequence (P32248 25-378): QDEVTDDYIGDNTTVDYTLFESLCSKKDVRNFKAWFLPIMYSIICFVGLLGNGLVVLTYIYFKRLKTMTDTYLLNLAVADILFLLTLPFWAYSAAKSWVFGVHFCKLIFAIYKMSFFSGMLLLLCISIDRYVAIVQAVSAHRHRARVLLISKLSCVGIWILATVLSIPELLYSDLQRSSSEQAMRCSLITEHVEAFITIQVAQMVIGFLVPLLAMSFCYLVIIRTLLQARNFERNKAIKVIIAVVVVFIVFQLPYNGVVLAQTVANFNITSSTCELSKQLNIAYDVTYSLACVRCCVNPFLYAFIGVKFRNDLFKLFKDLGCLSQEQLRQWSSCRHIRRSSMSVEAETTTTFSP

CCR7-YFP2 = target: T2, CCR7-YFP2 (Homo sapiens, UniProt P32248); assay: split reporter (BiFC, NanoBiT); BiFC read by confocal microscopy; HEK293 cells stably expressing CCR7-YFP2, transiently transfected with Nb-YFP1, unstimulated or stimulated with 0.5 µg/mL CCL19, fixed
T2 construct: Chemokine receptor CCR7, human; amplified by PCR and subcloned into the split-YFP2 BiFC vector; also called CC chemokine receptor 7; CCR7-Y2; source: HEK293, transiently or stably transfected, in cells; not shown: split-YFP2, C-terminal, kept
T2 sequence (P32248 25-378): as above

β2AR-SmBiT [1] = target: T3, β2AR-SmBiT (UniProt P07550); assay: split reporter (BiFC, NanoBiT); G-protein competition assay based on split-luciferase complementation; HEK293 cells co-expressing GPCR-SmBiT, LgBiT-mini-Gαi and Nb-YFP1 or pcDNA3 (1:1:1), stimulated with 10 µM isoproterenol or 1.5 µg/mL CCL19; fold increase in luminescence over baseline
T3 construct: β2-adrenergic receptor; also called pBiT2.1-C-β2AR-SmBiT; source: HEK293, transiently transfected, in cells; not shown: SmBiT (Small BiT of NanoLuc), C-terminal, kept

β2AR-YFP2 = target: T4, β2AR-YFP2 (human, UniProt P07550); assay: split reporter (BiFC, NanoBiT); BiFC read by flow cytometry; HEK293 cells co-expressing Nb-YFP1 and GPCR-YFP2, stimulated 20 min with 10 µM isoproterenol or 0.5 µg/mL CCL19, fixed in 4% formaldehyde
T4 construct: also called β2-adrenergic receptor; ADRB2; source: HEK293, transiently transfected, in cells; not shown: split-YFP2, C-terminal, kept

β2AR-SmBiT [2] = target: T3, β2AR-SmBiT; assay: split reporter (BiFC, NanoBiT); split-luciferase complementation; HEK293 cells co-expressing GPCR-SmBiT and Nb-LgBiT (plasmid ratio 1:1), coelenterazine H 5 µM, luminescence before and after 10 µM isoproterenol, 1.5 µg/mL CCL19 or PBS

B1: Nb1-LgBiT (VHH)
VHH: QVQLQESGGGLVQAGGSLRLSCAASGLRFSRNTMGWYRQAPGKQRELVAAIHSGGSTNYANSVKGRFTISRDNAANTVYLQMNSLKPEDTAVYYCNVKDWNNQPNGDDYWGQGTQVTVSS
notes: As the VHH of m3 (Nb1): Nb80 with randomised segments in CDR1 and CDR3; source: HEK293, transiently transfected, in cells; not shown: LgBiT (Large BiT of NanoLuc), C-terminal, kept
CCR7-SmBiT
  binding result: binds

B2: Nb1-YFP1 (VHH)
VHH: QVQLQESGGGLVQAGGSLRLSCAASGLRFSRNTMGWYRQAPGKQRELVAAIHSGGSTNYANSVKGRFTISRDNAANTVYLQMNSLKPEDTAVYYCNVKDWNNQPNGDDYWGQGTQVTVSS
notes: As the VHH of m1 (Nb80) with randomised segments in CDR1 and CDR3; Clone from the synthetically randomised Nb80 library; also called Nb1-Y1; source: HEK293, transiently transfected, in cells; not shown: split-YFP1 (N-terminal part of split-YFP), C-terminal, kept
CCR7-YFP2
  binding result: binds

B3: Nb5-LgBiT (VHH)
VHH: QVQLQESGGGLVQAGGSLRLSCAASGCVPGPNTMGWYRQAPGKQRELVAAIHSGGSTNYANSVKGRFTISRDNAANTVYLQMNSLKPEDTAVYYCNVKDETRTRHQNDYWGQGTQVTVSS
notes: As the VHH of m5 (Nb5): Nb80 with randomised segments in CDR1 and CDR3; source: HEK293, transiently transfected, in cells; not shown: LgBiT (Large BiT of NanoLuc), C-terminal, kept
CCR7-SmBiT
  binding result: binds

B4: Nb5-YFP1 (VHH)
VHH: QVQLQESGGGLVQAGGSLRLSCAASGCVPGPNTMGWYRQAPGKQRELVAAIHSGGSTNYANSVKGRFTISRDNAANTVYLQMNSLKPEDTAVYYCNVKDETRTRHQNDYWGQGTQVTVSS
notes: As the VHH of m1 (Nb80) with randomised segments in CDR1 and CDR3; Clone from the synthetically randomised Nb80 library; also called Nb5-Y1; source: HEK293, transiently transfected, in cells; not shown: split-YFP1 (N-terminal part of split-YFP), C-terminal, kept
CCR7-YFP2
  binding result: binds

B5: Nb38-LgBiT (VHH)
VHH: QVQLQESGGGLVQAGGSLRLSCAASGHTMFSNTMGWYRQAPGKQRELVAAIHSGGSTNYANSVKGRFTISRDNAANTVYLQMNSLKPEDTAVYYCNVKDFLGLIHFRDYWGQGTQVTVSS
notes: As the VHH of m7 (Nb38): Nb80 with randomised segments in CDR1 and CDR3; source: HEK293, transiently transfected, in cells; not shown: LgBiT (Large BiT of NanoLuc), C-terminal, kept
CCR7-SmBiT
  binding result: binds

B6: Nb38-YFP1 (VHH)
VHH: QVQLQESGGGLVQAGGSLRLSCAASGHTMFSNTMGWYRQAPGKQRELVAAIHSGGSTNYANSVKGRFTISRDNAANTVYLQMNSLKPEDTAVYYCNVKDFLGLIHFRDYWGQGTQVTVSS
notes: As the VHH of m1 (Nb80) with randomised segments in CDR1 and CDR3; Clone from the synthetically randomised Nb80 library; also called Nb38-Y1; source: HEK293, transiently transfected, in cells; not shown: split-YFP1 (N-terminal part of split-YFP), C-terminal, kept
CCR7-YFP2
  binding result: binds

B7: Nb80-YFP1 (VHH)
VHH: QVQLQESGGGLVQAGGSLRLSCAASGSIFSINTMGWYRQAPGKQRELVAAIHSGGSTNYANSVKGRFTISRDNAANTVYLQMNSLKPEDTAVYYCNVKDYGAVLYEYDYWGQGTQVTVSS
notes: Nanobody Nb80 against the β2-adrenergic receptor; The reverse PCR primer appears to encode a His6 stretch at the C-terminus of Nb80, ahead of YFP1 (surmised from the primer); No PDB id is printed; also called Nb80-Y1; pcDNA3-Nb80-YFP1; source: HEK293, transiently transfected, in cells; not shown: split-YFP1 (N-terminal part of split-YFP), C-terminal, kept
β2AR-SmBiT [1]
  binding result: binds
β2AR-YFP2
  binding result: binds

B8: Nb80-LgBiT (VHH)
VHH: QVQLQESGGGLVQAGGSLRLSCAASGSIFSINTMGWYRQAPGKQRELVAAIHSGGSTNYANSVKGRFTISRDNAANTVYLQMNSLKPEDTAVYYCNVKDYGAVLYEYDYWGQGTQVTVSS
notes: As the VHH of m1 (Nb80); Nb80 was moved from pcDNA3-Nb80-YFP1 into pcDNA3-CCR7-LgBiT by HindIII and ClaI, followed by site-directed mutagenesis at the junction; A Gly/Ser linker before LgBiT is surmised from the primers; also called pcDNA3-Nb80-LgBiT; source: HEK293, transiently transfected, in cells; not shown: LgBiT (Large BiT of NanoLuc), C-terminal, kept
β2AR-SmBiT [2]
  binding result: binds
